Source: US20120077964A1 (Merck Sharp & Dohme, published 2012)
Numbering of substitutions follows the chain as printed. Where two headings read alike, the source gives them in different places.

Legend:
Assay in all cases: cell-based or functional assay
[1] = biological target: T1, recombinant human PCSK9, V5-, His-tagged (human, UniProt Q8NBP7 31-692, limits assumed)
[2] = biological target: T1, recombinant human PCSK9, V5-, His-tagged; remark: listed apart in the source
[3] = biological target: T1, recombinant human PCSK9, V5-, His-tagged; remark: listed apart in the source
[4] = biological target: T1, recombinant human PCSK9, V5-, His-tagged; remark: listed apart in the source
[5] = biological target: T1, recombinant human PCSK9, V5-, His-tagged; remark: listed apart in the source

T1 sequence (Q8NBP7 31-692 limits assumed): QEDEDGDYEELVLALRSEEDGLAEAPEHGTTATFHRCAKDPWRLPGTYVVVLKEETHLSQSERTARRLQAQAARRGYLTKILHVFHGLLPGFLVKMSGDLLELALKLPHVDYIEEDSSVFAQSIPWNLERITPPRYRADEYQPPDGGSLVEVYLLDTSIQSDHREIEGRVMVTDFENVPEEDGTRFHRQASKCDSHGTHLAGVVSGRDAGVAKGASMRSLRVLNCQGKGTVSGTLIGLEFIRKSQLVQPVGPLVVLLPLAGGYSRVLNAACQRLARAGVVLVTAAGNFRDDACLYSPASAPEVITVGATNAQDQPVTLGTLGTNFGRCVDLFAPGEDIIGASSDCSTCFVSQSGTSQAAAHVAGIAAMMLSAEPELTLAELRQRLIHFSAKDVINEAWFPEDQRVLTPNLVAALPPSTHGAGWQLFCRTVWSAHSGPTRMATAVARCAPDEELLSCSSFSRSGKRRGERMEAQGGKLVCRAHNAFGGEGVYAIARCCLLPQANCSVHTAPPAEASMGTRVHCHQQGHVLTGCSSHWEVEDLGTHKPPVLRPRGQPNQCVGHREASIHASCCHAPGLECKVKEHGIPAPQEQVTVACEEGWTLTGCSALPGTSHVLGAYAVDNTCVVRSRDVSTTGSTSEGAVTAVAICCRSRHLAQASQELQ

B1: 3BX5C01 Fab (Fab, V domains shown)
VH: QVQLVQSGAEVKKPGESLKISCKGSGYSFTSYGISWVRQMPGKGLEWMGMIDPSDSFTTYSPSFQGQVTISADKSISTAYLQWSSLKASDTAMYYCARGYYFTYALQPMDHWGQGTLVTVSS
VL: DIELTQPPSVSVAPGQTARISCSGDNLRDYIVHWYQQKPGQAPVLVIYDDSNRPSGIPERFSGSNSGNTATLTISGTQAEDEADYYCGFDNGGDIDVFGGGTKLTVLG
IC50: Fab titrated against PCSK9 fixed at 25 µg/ml, recovery of cellular diI-LDL uptake (Exopolar assay) [1]: 1250 nM

B2: 3CX4B08 Fab (Fab, V domains shown)
VH: QVQLVESGGGLVQPGGSLRLSCAASGFTFSNYTMNWVRQAPGKGLEWVSFISSSSSETYYADSVKGRFTISRDNSKNTLYLQMNSLRAEDTAVYYCARGYGDMVDLWGQGTLVTVSS
VL: DIELTQPPSVSVAPGQTARISCSGDSIPTYYVAWYQQKPGQAPVLVIYSDTDRPSGIPERFSGSNSGNTATLTISGTQAEDEADYYCQSFDNHGYHVFGGGTKLTVLG
IC50: Fab titrated against PCSK9 fixed at 25 µg/ml, recovery of cellular diI-LDL uptake (Exopolar assay) [2]: 127 nM

B3: 1CX1G08 Fab (Fab, V domains shown)
VH: QVQLVESGGGLVQPGGSLRLSCAASGFTFSDYWVSWVRQAPGKGLEWVSFISYDGSSTYYADSVKGRFTISRDNSKNTLYLQMNSLRAEDTAVYYCARTYFEGVDVWGQGTLVTVSS
VL: DIELTQPPSVSVAPGQTARISCSGDNIGTYYVHWYQQKPGQAPVLVIYDDSNRPSGIPERFSGSNSGNTATLTISGTQAEDEADYYCGTWDNTSFNLVFGGGTKLTVLG
IC50: Fab titrated against PCSK9 fixed at 25 µg/ml, recovery of cellular diI-LDL uptake (Exopolar assay) [3]: 267 nM

B4: 3CX2A06 Fab (Fab, V domains shown)
VH: QVQLVQSGAEVKKPGESLKISCKGSGYSFSNFWIAWVRQMPGKGLEWMGIIDPSDSWTRYSPSFQGQVTISADKSISTAYLQWSSLKASDTAMYYCARGDGQDFDNWGQGTLVTVSS
VL: DIQMTQSPSSLSASVGDRVTITCRASQNINSYLNWYQQKPGKAPKLLIYAASSLQSGVPSRFSGSGSGTDFTLTISSLQPEDFAVYYCLQNYDLPNTFGQGTKVEIKR
IC50: Fab titrated against PCSK9 fixed at 25 µg/ml, recovery of cellular diI-LDL uptake (Exopolar assay) [4]: 107 nM

B5: 3CX3D02 Fab (Fab, V domains shown)
VH: QVQLVQSGAEVKKPGESLKISCKGSGYSFTNSWIGWVRQMPGKGLEWMGIIYPSDSYTIYSPSFQGQVTISADKSISTAYLQWSSLKASDTAMYYCARGGGYYYALMDVWAQGTLVTVSS
VL: B4 VL with N28T, N30S, S31T, Y32W, V85T, N91D, Y92S, D93S, N96L
IC50: Fab titrated against PCSK9 fixed at 25 µg/ml, recovery of cellular diI-LDL uptake (Exopolar assay) [5]: 269 nM
